Data on ten molecules can be found in patent US20140107021A1 (priority 2010, published 2014).

The target of data set [1] is T1, glucagon receptor (Homo sapiens, UniProt P47871). The experiment in a line: cell-based. The settings on record: Glu ICso (nM), Table A; Glu = glucagon. The source says: (§1) HEK293 cells co-transfected with the receptor and luciferase gene linked to a cAMP responsive element were employed for the bioassay.
(§2) All EC50s and IC50s are reported in the following examples in nM, unless indicated otherwise.

Another data set addresses T2, GLP-1 receptor (Homo sapiens, UniProt P43220).
T2 construct: expressed in transfected cells; host or cells: HEK293
The experiment in a line: cAMP induction at the GLP-1 receptor (agonist activity), firefly luciferase reporter assay in HEK293 cells. The following applies: for GLP-1R relative activity: relative to standard. Type of data set: cell-based.
Description: as §1, §2
In general terms: In a reporter assay the amount or activity of a reporter protein is the signal.

In another data set the target is T3, GIP receptor (Homo sapiens, UniProt P48546).
T3 construct: expressed in transfected cells; host or cells: HEK293
T3 sequence (P48546 22-466): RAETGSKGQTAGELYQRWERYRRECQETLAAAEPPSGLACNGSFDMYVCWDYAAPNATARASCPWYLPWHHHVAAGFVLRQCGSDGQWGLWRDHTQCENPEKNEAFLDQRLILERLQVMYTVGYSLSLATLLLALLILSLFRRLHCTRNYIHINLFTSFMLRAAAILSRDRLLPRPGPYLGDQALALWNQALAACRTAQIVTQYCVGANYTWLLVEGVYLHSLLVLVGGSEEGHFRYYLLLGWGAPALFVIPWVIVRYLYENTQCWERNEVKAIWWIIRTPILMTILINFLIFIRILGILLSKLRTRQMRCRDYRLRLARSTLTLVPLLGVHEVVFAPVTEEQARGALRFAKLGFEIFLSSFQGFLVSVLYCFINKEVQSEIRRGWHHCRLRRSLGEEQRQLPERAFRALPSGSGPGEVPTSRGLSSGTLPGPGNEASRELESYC
The experiment in a line: cAMP induction at the GIP receptor (agonist activity), luciferase reporter assay in HEK293 cells. The settings on record: for EC50 / GIPR relative activity: Table 4; for EC50: read-out: GIPR EC50; for GIPR relative activity: relative to standard. Type of data set: cell-based.
Description: as §1, §2

Data set [2] has as its target T1, glucagon receptor. Put plainly: cAMP induction at the glucagon receptor (agonist activity), luciferase reporter assay in HEK293 cells. The settings on record: for EC50 / GR relative activity: Table 4; for EC50: read-out: GR EC50; for GR relative activity: relative to standard. Format: cell-based. Details: expressed in transfected cells; host or cells: HEK293.
Description: as §1, §2

The mark [3] stands for this setting: Table 7, relative to the native ligand of the receptor.
Where [4] appears, read: Table 6, relative to the native ligand at the receptor.

Read-outs that look alike come from different tables or passages of the source. Numbered stars: 1 amine (or outer) side, 2 acyl side, 3 side chain; on linkers, the order of the positions; unused ones are H or OH. Square brackets hold non-standard residues; d marks the D form. Side chains are listed from the residue outwards. Ends that are not written are not given here. Peptide text beside a SMILES is read from it. * marks the point of attachment. PEG 40 kDa = PEG of 40 kDa covalently attached to Cys; γGlu = O=C(O)[C@H](CCC(=O)[*:2])N[*:1]; C16 acyl = 16 carbon fatty acyl group; Palmitoyl = CCCCCCCCCCCCCCCC(=O)*; Myristoyl = CCCCCCCCCCCCCC(=O)*; Aib = CC(C)(N)C(=O)O

T2 sequence (P43220 24-463): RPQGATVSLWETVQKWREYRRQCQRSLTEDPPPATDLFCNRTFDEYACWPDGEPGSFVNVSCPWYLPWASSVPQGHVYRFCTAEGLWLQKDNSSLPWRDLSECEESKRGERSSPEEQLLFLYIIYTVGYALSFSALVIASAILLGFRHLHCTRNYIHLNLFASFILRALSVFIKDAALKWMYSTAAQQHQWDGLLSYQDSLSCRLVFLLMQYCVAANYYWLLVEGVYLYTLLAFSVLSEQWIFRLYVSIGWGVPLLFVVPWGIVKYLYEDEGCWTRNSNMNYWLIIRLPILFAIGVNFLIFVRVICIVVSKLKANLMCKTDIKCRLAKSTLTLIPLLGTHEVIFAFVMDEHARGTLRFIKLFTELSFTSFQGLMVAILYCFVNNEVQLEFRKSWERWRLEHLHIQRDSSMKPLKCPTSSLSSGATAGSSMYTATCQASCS
T1 sequence (P47871 26-477): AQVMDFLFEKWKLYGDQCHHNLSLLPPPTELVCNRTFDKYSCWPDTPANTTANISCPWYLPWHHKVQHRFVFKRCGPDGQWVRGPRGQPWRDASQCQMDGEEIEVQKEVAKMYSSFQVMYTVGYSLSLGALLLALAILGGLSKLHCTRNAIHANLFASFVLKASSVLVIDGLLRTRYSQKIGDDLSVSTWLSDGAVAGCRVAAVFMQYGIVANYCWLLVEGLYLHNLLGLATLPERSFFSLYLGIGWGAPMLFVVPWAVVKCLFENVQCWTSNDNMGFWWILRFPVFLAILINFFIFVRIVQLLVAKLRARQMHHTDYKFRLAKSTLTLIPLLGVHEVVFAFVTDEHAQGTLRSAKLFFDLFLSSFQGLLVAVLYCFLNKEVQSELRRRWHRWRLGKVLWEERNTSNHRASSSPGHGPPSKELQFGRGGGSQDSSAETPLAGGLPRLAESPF

By IC50 is commonly meant the concentration that inhibits the measured activity by half. High values mean weaker potency, low ones greater potency. What is called EC50 is the concentration needed to bring the measured effect to its halfway point. `CSCC[C@H](NC(=O)[C@H](CC(C)C)NC(=O)[C@H](Cc1c[nH]c2ccccc12)NC(=O)[C@H](CCC(N)=O)NC(=O)[C@@H](NC(=O)[C@H](Cc1ccccc1)NC(=O)[C@H](CC(=O)O)NC(=O)[C@H](CCC(N)=O)NC(=O)[C@H](C)NC(=O)[C@H](CCCNC(=N)N)NC(=O)[C@H](CCCNC(=N)N)NC(=O)[C@@H]1CCC(=O)NCCCC[C@H](NC(=O)[C@H](CO)NC(=O)[C@H](Cc2ccc(O)cc2)NC(=O)[C@H](CCC(=O)O)NC(=O)[C@H](CO)NC(=O)[C@@H](NC(=O)[C@@H](O)Cc2ccccc2)[C@@H](C)O)C(=O)N[C@@H](Cc2ccc(O)cc2)C(=O)N[C@@H](CC(C)C)C(=O)N[C@@H](CC(=O)O)C(=O)N1)C(C)C)C(=O)N[C@@H](CC(N)=O)C(=O)N[C@H](C(=O)NCC(=O)N1CCC[C@H]1C(=O)N[C@@H](CO)C(=O)N[C@@H](CO)C(=O)NCC(=O)N[C@@H](C)C(=O)N1CCC[C@H]1C(=O)N1CCC[C@H]1C(=O)N1CCC[C@H]1C(=O)N[C@@H](CO)C(N)=O)[C@@H](C)O` [[PLA6, E9, K12E16(Lactam)] (HELM PEPTIDE1{[O=C([C@@H](O)Cc1ccccc1)[*:2]].T.S.E.Y.S.K.Y.L.D.E.R.R.A.Q.D.F.V.Q.W.L.M.N.T.G.P.S.S.G.A.P.P.P.S.[am]}$PEPTIDE1,PEPTIDE1,7:R3-11:R3$$$V2.0) showed an IC50 on glucagon receptor [1] of 72 nM. Also, the EC50 at GLP-1 receptor (GLP-1 EC50 (nM), Table C) worked out at 6 nM; at GLP-1 receptor (GLP-1 ECso (nM), Table A), 6 nM.
Regarding `CC[C@H](C)[C@H](NC(=O)[C@H](CO)NC(=O)[C@H](Cc1ccc(O)cc1)NC(=O)[C@H](CC(=O)O)NC(=O)[C@H](CO)NC(=O)[C@@H](NC(=O)[C@H](Cc1ccccc1)NC(=O)[C@@H](NC(=O)CNC(=O)[C@H](CCC(=O)O)NC(=O)C(C)(C)NC(=O)[C@@H](N)Cc1ccc(O)cc1)[C@@H](C)O)[C@@H](C)O)C(=O)N[C@@H](Cc1ccc(O)cc1)C(=O)N[C@@H](CC(C)C)C(=O)N[C@@H](CC(=O)O)C(=O)N[C@@H](CCCCN)C(=O)N[C@@H](CCC(N)=O)C(=O)N[C@@H](C)C(=O)N[C@@H](C)C(=O)NC(C)(C)C(=O)N[C@@H](CCC(=O)O)C(=O)N[C@@H](Cc1ccccc1)C(=O)N[C@H](C(=O)N[C@@H](CC(N)=O)C(=O)N[C@@H](Cc1c[nH]c2ccccc12)C(=O)N[C@@H](CC(C)C)C(=O)N[C@@H](CC(C)C)C(=O)N[C@@H](C)C(=O)NCC(=O)NCC(=O)N1CCC[C@H]1C(=O)N[C@@H](CO)C(=O)N[C@@H](CO)C(=O)NCC(=O)N[C@@H](C)C(=O)N1CCC[C@H]1C(=O)N1CCC[C@H]1C(=O)N1CCC[C@H]1C(=O)N[C@@H](CO)C(N)=O)C(C)C` [mt-395], the half-maximal effective concentration (EC50) at GIP receptor is 0.0025 nM; on glucagon receptor [2], 3.41 nM; on GLP-1 receptor (Table 4, read-out: GLP-1R EC50), 0.0076 nM. The GIPR relative activity on GIP receptor stood at 537.45%. The GR relative activity at glucagon receptor [2] came to 0.87%. The GLP-1R relative activity at GLP-1 receptor (Table 4) amounted to 321.55%.
Consider `CC[C@H](C)[C@H](NC(=O)[C@H](CO)NC(=O)[C@H](Cc1ccc(O)cc1)NC(=O)[C@H](CC(=O)O)NC(=O)[C@H](CO)NC(=O)[C@@H](NC(=O)[C@H](Cc1ccccc1)NC(=O)[C@@H](NC(=O)CNC(=O)[C@H](CCC(=O)O)NC(=O)C(C)(C)NC(=O)[C@@H](N)Cc1ccc(O)cc1)[C@@H](C)O)[C@@H](C)O)C(=O)N[C@@H](Cc1ccc(O)cc1)C(=O)N[C@@H](CC(C)C)C(=O)N[C@@H](CC(=O)O)C(=O)N[C@@H](CCCCN)C(=O)N[C@@H](CCC(N)=O)C(=O)N[C@@H](C)C(=O)N[C@@H](C)C(=O)NC(C)(C)C(=O)N[C@@H](CCC(=O)O)C(=O)N[C@@H](Cc1ccccc1)C(=O)N[C@H](C(=O)N[C@@H](CC(N)=O)C(=O)N[C@@H](Cc1c[nH]c2ccccc12)C(=O)N[C@@H](CC(C)C)C(=O)N[C@@H](CC(C)C)C(=O)N[C@@H](C)C(=O)NCC(=O)NCC(=O)N1CCC[C@H]1C(=O)N[C@@H](CO)C(=O)N[C@@H](CO)C(=O)NCC(=O)N[C@@H](C)C(=O)N1CCC[C@H]1C(=O)N1CCC[C@H]1C(=O)N1CCC[C@H]1C(=O)N[C@@H](CO)C(=O)N[C@@H](CCC(=O)O)C(N)=O)C(C)C` [mt-396], for which, on GIP receptor, the EC50 turned out to be 0.0034 nM and the GIPR relative activity came out at 402.69%. For the same molecule, at glucagon receptor [2], the EC50 was 2.9 nM and the GR relative activity amounted to 1.03%. The EC50 on GLP-1 receptor (Table 4, read-out: GLP-1R EC50) is 0.0093 nM. Further, the GLP-1R relative activity on GLP-1 receptor (Table 4) was determined as 262.27%.
With `CC[C@H](C)[C@H](NC(=O)[C@H](CO)NC(=O)[C@H](Cc1ccc(O)cc1)NC(=O)[C@H](CC(=O)O)NC(=O)[C@H](CO)NC(=O)[C@@H](NC(=O)[C@H](Cc1ccccc1)NC(=O)[C@@H](NC(=O)CNC(=O)[C@H](CCC(=O)O)NC(=O)C(C)(C)NC(=O)[C@@H](N)Cc1ccc(O)cc1)[C@@H](C)O)[C@@H](C)O)C(=O)N[C@@H](Cc1ccc(O)cc1)C(=O)N[C@@H](CC(C)C)C(=O)N[C@@H](CC(=O)O)C(=O)N[C@@H](CCCCN)C(=O)N[C@@H](CCC(N)=O)C(=O)N[C@@H](C)C(=O)N[C@@H](C)C(=O)NC(C)(C)C(=O)N[C@@H](CCC(=O)O)C(=O)N[C@@H](Cc1ccccc1)C(=O)N[C@H](C(=O)N[C@@H](CC(N)=O)C(=O)N[C@@H](Cc1c[nH]c2ccccc12)C(=O)N[C@@H](CC(C)C)C(=O)N[C@@H](CC(C)C)C(=O)N[C@@H](C)C(=O)NCC(=O)NCC(=O)N1CCC[C@H]1C(=O)N[C@@H](CO)C(=O)N[C@@H](CO)C(=O)NCC(=O)N[C@@H](C)C(=O)N1CCC[C@H]1C(=O)N1CCC[C@H]1C(=O)N1CCC[C@H]1C(=O)N[C@@H](CO)C(=O)N[C@H](CCCCN)C(N)=O)C(C)C` [mt-398], the EC50 at GIP receptor was determined as 0.0031 nM; on glucagon receptor [2], 3.74 nM; at GLP-1 receptor (Table 4, read-out: GLP-1R EC50) it was 0.0078 nM.
As for “Chimera2-CEXK40(C16) (H[Aib]QGTFTSDYSKYLDEQAAKEFIAWLMNGGPSSGAPPPSK(Palmitoyl)-NH2) [MT-364]”, in the data set with GIP receptor (setting [3]), the “% Relative Activity at GIPR” value worked out at 16%. For the same molecule, in the data set with glucagon receptor [2] (setting [3]), the “% Relative Activity at GR” value turned out to be 350%. The “% Relative Activity GLP-1R” value with GLP-1 receptor (setting [3]) is on record as 355%.
Regarding “E3C24-PEG-K10-C14 (Y[Aib]EGTFTSDK(Myristoyl)SIYLDKQAA[Aib]EFVC(PEG 40 kDa)WLLAGGPSSGAPPPS-NH2) [MT-341]”, the “% Relative Activity at GIPR” value with GIP receptor (Table 9) is 27.4%. Further, in the data set with glucagon receptor [2] (Table 9), the “% Relative Activity at GR” value stood at 0.01%. Further, the “% Relative Activity GLP-1R” value in the data set with GLP-1 receptor (Table 9) is 14.6%.
The like results for “E3C24-PEG-K40-C14 (Y[Aib]EGTFTSDYSIYLDKQAA[Aib]EFVC(PEG 40 kDa)WLLAGGPSSGAPPPSK(Myristoyl)-NH2) [MT-353]” were, in that order, 102.9%, 0.17% and 128.6%.
As to “E3K16AIB2,20K10(C16) (Y[Aib]EGTFTSDK(C16 acyl)SIYLDKQAA[Aib]EFVNWLLAGGPSSGAPPPS-NH2) [MT-270]”, the entries for the “% Relative Activity at GIPR” value in the data set with GIP receptor (setting [4]) and with GIP receptor (Table 9) were 163% and 163.3%, respectively. The “% Relative Activity at GR” value is 0.1% with glucagon receptor [2] (setting [4]) and 0.06% with glucagon receptor [2] (Table 9). The “% Relative Activity GLP-1R” value is 212% with GLP-1 receptor (setting [4]) and 211.8% in the data set with GLP-1 receptor (Table 9).
As for “K40-C16 (Y[Aib]QGTFTSDYSIYLDKQAA[Aib]EFVNWLLAGGPSSGAPPPSK(C16 acyl)-NH2) [MT-278]”, the “% Relative Activity at GIPR” value with GIP receptor (Table 9) was determined as 846.4%. For the same molecule, the “% Relative Activity at GR” value with glucagon receptor [2] (Table 9) was 588.4%. In addition, the “% Relative Activity GLP-1R” value with GLP-1 receptor (Table 9) is reported as 459.5%.
On to “Q3K16AIB20K10(rErE-C16) (Y[Aib]QGTFTSDK([γGlu-γGlu-C16 acyl])SIYLDKQAA[Aib]EFVNWLLAGGPSSGAPPPS-NH2) [MT-384]”, for which the “% Relative Activity at GIPR” value with GIP receptor (setting [3]) is on record as 808%. For the same molecule, the “% Relative Activity at GR” value with glucagon receptor [2] (setting [3]) was found to be 228%. The “% Relative Activity GLP-1R” value with GLP-1 receptor (setting [3]) amounted to 349%.
